This note sets out measurements from patent US20040005643A1.

For assay [1], the target named is human tenascin-C (human) (UniProt P24821). Briefly: BIAcore.
The target is the same in assay [2]. Description: ELISA, biotinylated antibody, 2-3 moles biotin/antibody. Background: In an ELISA, binding on a coated surface is turned into a signal by an enzyme label.
For assay [3] the target is unchanged. Briefly: ELISA, biotinylated antibody, 7-10 moles biotin/antibody.
The target is the same in assay [4]. Description: ELISA, biotinylated antibody, 15-20 moles biotin/antibody.
Assay [5] has the same target. Briefly: ELISA, biotinylated antibody, 3.5-5 moles biotin/antibody.
Assay [6] has the same target. Briefly: immunoreactivity of the batch used for biodistribution, 7-10 biotins/mole.

One may read the Kd as the equilibrium constant for the complex coming apart. The low end stands for tighter binding, the high end for weaker binding.

human tenascin-C (human), sequence (P24821 23-2201 limits assumed): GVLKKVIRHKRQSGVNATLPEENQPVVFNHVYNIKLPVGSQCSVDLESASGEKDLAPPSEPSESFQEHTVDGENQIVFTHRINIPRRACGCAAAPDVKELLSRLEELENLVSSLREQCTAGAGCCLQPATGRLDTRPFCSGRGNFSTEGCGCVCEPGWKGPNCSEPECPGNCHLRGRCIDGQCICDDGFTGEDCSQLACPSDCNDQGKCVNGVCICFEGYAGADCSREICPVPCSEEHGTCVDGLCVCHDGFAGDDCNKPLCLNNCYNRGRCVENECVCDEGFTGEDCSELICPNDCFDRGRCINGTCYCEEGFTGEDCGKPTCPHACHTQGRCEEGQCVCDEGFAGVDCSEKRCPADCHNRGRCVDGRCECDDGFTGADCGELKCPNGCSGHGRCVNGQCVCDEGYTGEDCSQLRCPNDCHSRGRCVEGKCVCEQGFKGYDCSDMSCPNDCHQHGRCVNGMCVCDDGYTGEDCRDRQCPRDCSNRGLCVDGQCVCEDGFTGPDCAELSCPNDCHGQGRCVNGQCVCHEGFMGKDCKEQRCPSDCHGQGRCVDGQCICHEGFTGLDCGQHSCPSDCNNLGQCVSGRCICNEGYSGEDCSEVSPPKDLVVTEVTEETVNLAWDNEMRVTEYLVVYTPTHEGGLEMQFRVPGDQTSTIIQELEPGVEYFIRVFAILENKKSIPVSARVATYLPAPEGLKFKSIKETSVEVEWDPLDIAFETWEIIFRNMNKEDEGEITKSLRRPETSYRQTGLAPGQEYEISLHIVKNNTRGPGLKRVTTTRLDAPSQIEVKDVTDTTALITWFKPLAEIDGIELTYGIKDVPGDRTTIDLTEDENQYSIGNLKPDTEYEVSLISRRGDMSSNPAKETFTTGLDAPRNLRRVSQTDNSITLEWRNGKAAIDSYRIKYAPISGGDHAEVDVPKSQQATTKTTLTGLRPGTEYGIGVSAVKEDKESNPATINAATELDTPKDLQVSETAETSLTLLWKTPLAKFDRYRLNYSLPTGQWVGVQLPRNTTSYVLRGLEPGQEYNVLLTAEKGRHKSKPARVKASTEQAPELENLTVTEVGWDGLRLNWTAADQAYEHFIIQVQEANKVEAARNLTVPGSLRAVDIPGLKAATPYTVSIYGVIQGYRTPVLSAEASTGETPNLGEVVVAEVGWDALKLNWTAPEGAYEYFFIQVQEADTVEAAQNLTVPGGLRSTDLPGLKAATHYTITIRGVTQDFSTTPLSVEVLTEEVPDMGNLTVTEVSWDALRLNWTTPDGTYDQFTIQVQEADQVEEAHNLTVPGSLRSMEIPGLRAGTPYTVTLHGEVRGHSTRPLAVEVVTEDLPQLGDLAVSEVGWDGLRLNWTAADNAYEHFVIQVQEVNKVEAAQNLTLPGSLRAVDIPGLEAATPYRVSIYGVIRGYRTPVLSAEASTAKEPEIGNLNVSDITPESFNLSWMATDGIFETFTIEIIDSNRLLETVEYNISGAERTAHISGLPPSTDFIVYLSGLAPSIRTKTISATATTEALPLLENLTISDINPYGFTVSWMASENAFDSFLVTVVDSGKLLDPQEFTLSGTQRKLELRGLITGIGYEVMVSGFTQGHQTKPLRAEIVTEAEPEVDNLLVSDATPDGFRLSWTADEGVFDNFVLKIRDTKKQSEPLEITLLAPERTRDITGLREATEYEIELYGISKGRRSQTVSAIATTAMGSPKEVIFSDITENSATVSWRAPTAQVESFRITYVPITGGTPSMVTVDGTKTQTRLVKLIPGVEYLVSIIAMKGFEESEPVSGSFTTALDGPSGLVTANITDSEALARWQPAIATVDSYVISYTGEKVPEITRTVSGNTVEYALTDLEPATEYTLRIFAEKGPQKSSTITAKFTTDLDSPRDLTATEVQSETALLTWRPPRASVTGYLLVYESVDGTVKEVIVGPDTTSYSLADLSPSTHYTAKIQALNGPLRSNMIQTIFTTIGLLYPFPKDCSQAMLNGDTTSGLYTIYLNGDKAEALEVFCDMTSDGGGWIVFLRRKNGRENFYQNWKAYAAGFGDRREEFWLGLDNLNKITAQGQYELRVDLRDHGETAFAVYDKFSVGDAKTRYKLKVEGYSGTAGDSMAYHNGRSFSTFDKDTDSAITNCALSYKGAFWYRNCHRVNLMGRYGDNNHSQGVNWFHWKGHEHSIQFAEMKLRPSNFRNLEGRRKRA

Substance “BC4 anti-human tenascin monoclonal antibody” had an equilibrium dissociation constant (Kd) in assay [1] of 4.9 nM.
As for biotinylated BC4 (antibody), the % of Immunoreactivity in assay [2] is 82.4%; in assay [3], 67.2%; in assay [4], 12.6%; in assay [5], 74.4%. Further, the immunoreactivity in assay [6] was 80%.
